# Numbering of substitutions follows the chain as printed. Names may count otherwise.
# B1: H1.118_L1 (antibody, V domains shown)
# VH: EVQLVESGGGLVQPGGSLRLSCAASGFTFSSFGMHWVRQAPGKGLEWVSYISSGSSIIYYADSVKGRFTISRDNAKNSLYLQMNSLRAEDTAVYYCARGQRLVWSPDYWGQGTLVTVSS
# VL: DIVMTQSPDSLAVSLGERATINCKSSQSLLNSGNQKNYLTWYQQKPGQPPKLLIYWASTRESGVPDRFTGSGSGTDFTLTISSLQAEDVAVYYCQNDYSYPFTFGSGTKLEIKR
# notes: also called VH-G108Q; Kabat 96
# B2: H1.139_L1 (antibody, V domains shown)
# VH: B1 VH with Q100G, L102A
# VL: B1 VL
# notes: also called VH-L110A; Kabat 98
# B3: H1.134_L1 (antibody, V domains shown)
# VH: B1 VH with Q100G, L102F
# VL: B1 VL
# notes: also called VH-L110F; Kabat 98
# B4: H1.137_L1 (antibody, V domains shown)
# VH: B1 VH with Q100G, L102W
# VL: B1 VL
# notes: also called VH-L110W; Kabat 98
# B5: H1.127_L1 (antibody, V domains shown)
# VH: B1 VH with Q100G, R101H
# VL: B1 VL
# notes: also called VH-R109H; Kabat 97
# B6: H1.129_L1 (antibody, V domains shown)
# VH: B1 VH with Q100G, R101G
# VL: B1 VL
# notes: also called VH-R109G; Kabat 97
# B7: H1.119_L1 (antibody, V domains shown)
# VH: B1 VH with Q100H
# VL: B1 VL
# notes: also called VH-G108H; Kabat 96
# B8: H1.144_L1 (antibody, V domains shown)
# VH: B1 VH with Q100G, V103L
# VL: B1 VL
# notes: also called VH-V111L; Kabat 99
# B9: H1.138_L1 (antibody, V domains shown)
# VH: B1 VH with Q100G, L102D
# VL: B1 VL
# notes: also called VH-L110D; Kabat 98
# B10: H1.136_L1 (antibody, V domains shown)
# VH: B1 VH with Q100G, L102Y
# VL: B1 VL
# notes: also called VH-L110Y; Kabat 98
# B11: H1.146_L1 (antibody, V domains shown)
# VH: B1 VH with Q100G, V103Y
# VL: B1 VL
# notes: also called VH-V111Y; Kabat 99
# B12: H1.142_L1 (antibody, V domains shown)
# VH: B1 VH with Q100G, V103T
# VL: B1 VL
# notes: also called VH-V111T; Kabat 99
# B13: H1.143_L1 (antibody, V domains shown)
# VH: B1 VH with Q100G, V103I
# VL: B1 VL
# notes: also called VH-V111I; Kabat 99
# B14: H1.126_L1 (antibody, V domains shown)
# VH: B1 VH with Q100G, R101D
# VL: B1 VL
# notes: also called VH-R109D; Kabat 97
# B15: H1.128_L1 (antibody, V domains shown)
# VH: B1 VH with Q100G, R101S
# VL: B1 VL
# notes: also called VH-R109S; Kabat 97
# B16: H1.141_L1 (antibody, V domains shown)
# VH: B1 VH with Q100G, L102K
# VL: B1 VL
# notes: also called VH-L110K; Kabat 98
# B17: H1.125_L1 (antibody, human IgG1, kappa, V domains shown)
# VH: B1 VH with Q100G, R101E
# VL: B1 VL
# notes: also called VH-R109E; Kabat 97; copies: 2 + 2
# B18: H1.145_L1 (antibody, V domains shown)
# VH: B1 VH with Q100G, V103A
# VL: B1 VL
# notes: also called VH-V111A; Kabat 99
# B19: mAb C H1.132_L1 (antibody, V domains shown)
# VH: B1 VH with Q100G, R101W
# VL: B1 VL
# notes: copies: 2 + 2
# B20: H1.124_L1 (antibody, V domains shown)
# VH: B1 VH with Q100G, R101K
# VL: B1 VL
# notes: also called VH-R109K; Kabat 97
# B21: H1.123_L1 (antibody, V domains shown)
# VH: B1 VH with Q100Y
# VL: B1 VL
# notes: also called VH-G108Y; Kabat 96
# B22: H1.135_L1 (antibody, V domains shown)
# VH: B1 VH with Q100G, L102V
# VL: B1 VL
# notes: also called VH-L110V; Kabat 98
# B23: H1.131_L1 (antibody, V domains shown)
# VH: B1 VH with Q100G, R101I
# VL: B1 VL
# notes: also called VH-R109I; Kabat 97
# B24: H1.133_L1 (antibody, V domains shown)
# VH: B1 VH with Q100G, L102I
# VL: B1 VL
# notes: also called VH-L110I; Kabat 98
# B25: H1.130_L1 (antibody, human IgG1, kappa, V domains shown)
# VH: B1 VH with Q100G, R101Y
# VL: B1 VL
# notes: also called VH-R109Y; Kabat 97; copies: 2 + 2
# B26: H1_L1.23 (antibody, V domains shown)
# VH: B1 VH with Q100G
# VL: B1 VL with N34D
# notes: also called VL-N34D; Kabat 28
# B27: H1_L1.22 (antibody, V domains shown)
# VH: B1 VH with Q100G
# VL: B1 VL with G33Y
# notes: also called VL-G33Y; Kabat 27f
# B28: H1_L1.24 (antibody, V domains shown)
# VH: B1 VH with Q100G
# VL: B1 VL with N34H
# notes: also called VL-N34H; Kabat 28
# Target: T1, human PD-1-His (human, UniProt Q15116 25-167, limits assumed)
# T1 construct: Antigen of the Octet assays; not shown: His tag
# Test: Octet
# T1 sequence (Q15116 25-167 limits assumed): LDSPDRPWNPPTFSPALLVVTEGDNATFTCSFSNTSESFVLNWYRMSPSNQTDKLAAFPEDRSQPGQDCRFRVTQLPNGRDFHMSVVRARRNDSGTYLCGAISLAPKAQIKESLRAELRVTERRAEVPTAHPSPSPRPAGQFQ
Binder,Kd [nM],koff [s⁻¹],kon [M⁻¹ s⁻¹]
B1,192,0.0316,164000
B2,98.9,0.011,111000
B3,60.8,0.0088,145000
B4,32.6,0.0056,172000
B5,30.8,0.00578,188000
B6,43.2,0.00719,167000
B7,186,0.0376,202000
B8,130,0.0174,134000
B9,116,0.0128,110000
B10,54.5,0.00863,158000
B11,102,0.0157,155000
B12,88,0.0118,134000
B13,35.6,0.00633,178000
B14,43.1,0.0109,254000
B15,32.8,0.00608,186000
B16,118,0.0132,112000
B17,18.7,0.0052,278000
B18,110,0.0177,161000
B19,9.63,0.00218,227000
B20,48.8,0.00674,138000
B21,350,0.0538,154000
B22,46.7,0.00685,147000
B23,43.5,0.00878,202000
B24,49.5,0.00753,152000
B25,22.1,0.00505,228000

# Target: T1, human PD-1-His
# Test: Octet
# Remark: another data set of the same source
Binder,Kd [nM],koff [s⁻¹],kon [M⁻¹ s⁻¹]
B26,57.6,0.006,104000
B27,271,0.0269,99100
B28,200,0.0183,91600

# Reference: US20240294593A1 (Genentech, published 2024)
